Patent US20130236470A1 (JUNTENDO EDUCATINAL FOUNDATION, published 2013)

Tests used:
[1] = molecular target: T1, TRAIL death receptor DR5 (UniProt O14763 56-440, limits assumed); assay: flow cytometry on BHK cells transfected with the DR5 receptor gene
T1 construct: whole, on cells; also called DR5 receptor
Description: (§1) Hamster-derived BHK cells transfected with the DR4 receptor or DR5 receptor gene were incubated with the antibody of the present invention for 1 hour and analyzed by flow cytometry in the same way as in Example 6.
(§2) In order to confirm whether the antibody of the present invention targets a TNF-related apoptosis inducing ligand (TRAIL) death receptor DR4 or DR5 known as a death receptor (cell death-inducing antigen), the antibody of the present invention was examined for its ability to stain hamster-derived BHK cells transfected with the DR4 receptor or DR5 receptor gene in the same way as above. As a result, the cells were stained by a known antibody against DR4 receptor or DR5 receptor (red line), but not stained by the antibody of the present invention (FIG. 9).

[2] = molecular target: T2, DR12-17 (human); assay: SPOTs peptide membrane, biotinylated 4713 antibody 1 µg/mL
T2 construct: HLA-DR12 overlapping peptide on SPOTs membrane
T2 peptide: VCSVSGFYPGSIEVR
Description: (§3) In order to reconfirm the results obtained using the peptide microarray, HLA-DR expressed by L428 cells was analyzed. […] Next, overlapping peptides were synthesized from the amino acid sequence of HLA-DR12 to prepare a custom SPOTs nitrocellulose membrane (Sigma-Aldrich Corp.). The membrane was rinsed with methanol for 5 minutes, then washed with a […] (TBS), and incubated at room temperature for 2 hours for blocking. […] The membrane was washed and then incubated for 2 hours in a solution of peroxidase (HRP)-labeled streptavidin (manufactured by Dako Japan Inc.) diluted 3000-fold with TBS. After washing, positive spots were detected using ECL Prime Western Blotting Detection kit (manufactured by GE Healthcare Japan Corp.) and a chemiluminescence detector (LAS-4000) (Table 3). As a result, the most strongly reacted peptide was DR12-26, followed by DR12-6 and DR12-13. […] Although an HLA-DR12-derived peptide to which the antibody described in WO2003/033538 binds was also arrayed as DR12-28, no binding was seen (Table 3).

[3] = molecular target: T3, DR12-15 (human); assay: as above
T3 construct: HLA-DR12 overlapping peptide on SPOTs membrane
T3 peptide: KVTVYPSKTQPLQHH
Description: as §3

[4] = molecular target: T4, DR12-25 (human); assay: as above
T4 construct: HLA-DR12 overlapping peptide on SPOTs membrane
T4 peptide: WRARSESAQSK
Description: as §3

[5] = molecular target: T5, DR12-7 (human); assay: as above
T5 construct: HLA-DR12 overlapping peptide on SPOTs membrane
T5 peptide: LLERHFHNQEELLRF
Description: as §3

[6] = molecular target: T6, DR12-13 (human); assay: as above
T6 construct: HLA-DR12 overlapping peptide on SPOTs membrane; also called DR-13
T6 peptide: RHNYGAVESFTVQRR
Description: as §3

[7] = molecular target: T7, DR12-2 (human); assay: as above
T7 construct: HLA-DR12 overlapping peptide on SPOTs membrane
T7 peptide: SSLAALTVTLMVLSS
Description: as §3

[8] = molecular target: T8, DR12-4 (human); assay: as above
T8 construct: HLA-DR12 overlapping peptide on SPOTs membrane
T8 peptide: FAGDTRPRFLEYSTG
Description: as §3

[9] = molecular target: T9, DR12-3 (human); assay: as above
T9 construct: HLA-DR12 overlapping peptide on SPOTs membrane
T9 peptide: LMVLSSRLAFAGDTR
Description: as §3

[10] = molecular target: T10, DR12-14 (human); assay: as above
T10 construct: HLA-DR12 overlapping peptide on SPOTs membrane
T10 peptide: FTVQRRVHPKVTVYP
Description: as §3

[11] = molecular target: T11, DR12-26 (human); assay: as above
T11 construct: HLA-DR12 peptide on SPOTs membrane; also called DR-26
T11 peptide: RNQKGHSGLQPRGFLS
Description: as §3

[12] = molecular target: T12, DR12-6 (human); assay: as above
T12 peptide: FFNGTERVRLLERHF
Description: as §3

[13] = molecular target: T13, #25 (human); assay: SPOTs peptide membrane (HLA-DR epitope peptide library)
T13 peptide: WNSQKDFLERRRA

[14] = molecular target: T14, #38 (human); assay: as above
T14 peptide: WNSQKDLLERRRA

[15] = molecular target: T15, #34 (human); assay: as above
T15 peptide: WNSQKDLLEQRRA

[16] = molecular target: T16, peptide sequence WNSQKDILEQKRG of the HLA-DR β-chain (human); assay: peptide microarray of overlapping HLA-DR52 β chain peptides
T16 construct: on the microarray as overlapping 8- to 12-mers
T16 peptide: WNSQKDILEQKRG
Description: (§4) Overlapping peptides consisting of 8 to 12 amino acids shifted by one amino acid were chemically synthesized from their C termini on an array using the amino acid sequence of an HLA-DR52 β chain having the highest homology as a result of analysis using software Mascot (Shimadzu Techno-Research, Inc.) to prepare a peptide microarray (LC Sciences, LLC, Texas, US). First, the array was blocked by immersion overnight at 4° C. in a SuperBlock (pH 7.0) (Pierce Biotechnology Inc.) solution containing 0.05% Tween-20 to prevent nonspecific antibody binding. […] The array was washed with the washing solution for 20 minutes and then incubated at 25° C. for 1 hour in a 10 ng/mL Cy5-labeled goat anti-mouse IgG antibody solution. Cy5 was assayed at a wavelength of 635 nm using a microarray scanner (PMT 700 V). Since nonspecific binding to a peptide sequence having a C-terminal tryptophan residue was observed, this sequence was omitted and peptide sequences showing specific binding were then analyzed. […] A peptide sequence ([…]: SEQ ID NO: 2) of the HLA-DR β-chain to which an antibody described in WO2003/033538 bind is located 6 amino acid residues before the second N-terminal cysteine residue.

[17] = molecular target: T17, TRAIL death receptor DR4 (UniProt O00220 24-468, limits assumed); assay: flow cytometry on BHK cells transfected with the DR4 receptor gene
T17 construct: whole, on cells; also called DR4 receptor
T17 sequence (looked up): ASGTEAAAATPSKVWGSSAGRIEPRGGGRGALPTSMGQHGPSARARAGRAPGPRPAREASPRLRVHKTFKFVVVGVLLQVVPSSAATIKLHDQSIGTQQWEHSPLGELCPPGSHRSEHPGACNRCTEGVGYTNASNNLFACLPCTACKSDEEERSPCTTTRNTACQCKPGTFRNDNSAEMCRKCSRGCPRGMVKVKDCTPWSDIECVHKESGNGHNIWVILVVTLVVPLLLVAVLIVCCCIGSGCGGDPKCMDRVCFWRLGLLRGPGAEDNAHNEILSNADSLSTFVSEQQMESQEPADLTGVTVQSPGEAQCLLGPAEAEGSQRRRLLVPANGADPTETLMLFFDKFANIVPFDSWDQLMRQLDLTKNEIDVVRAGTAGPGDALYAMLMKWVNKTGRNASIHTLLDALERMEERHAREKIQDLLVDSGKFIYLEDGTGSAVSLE
Description: as §1, §2

[18] = molecular target: T18, HLA-DR expressed by L428 cells (human); assay: flow cytometry on L428 cells, serially diluted antibody; reference LN3
T18 construct: whole, on cells; The assay is on L428 cells; also called HLA-DR12; HLA-DR on L428 cells
Description: The ability of each antibody to bind to L428 cells was analyzed by incubation with each of serially diluted antibody solutions using a flow cytometer. […] For cell death induction, the uptake of propidium iodide (PI) was analyzed using a flow cytometer.

[19] = molecular target: T19, peptide CRHNYGVGESFT (human); assay: peptide microarray of overlapping HLA-DR52 β chain peptides, 5 µg/mL 4713 mAb
T19 construct: Region of the HLA-DR52 β chain on the peptide microarray (overlapping 8- to 12-mers)
T19 peptide: CRHNYGVGESFT
Description: as §4

B1: 4713 mAb (antibody, mouse IgG1, V domains shown)
VH: DVQLQESGPGLVKPSQSLSLTCTVTGYSITNDYAWNWIRQFPGNKLEWMGYISYNDFTYYNPSLKSRISITRDTSKNQFFLQLNSVTAEDTATYYCVSERLRLVNHVMDYWGQGTSVIVSS
VL: QIVLTQSPPIMSASPGEKVTMTCSASSSVNYMHWHQQKSGTSPKKWIYDTSKLISGVPARFSGSGSGTSYSLTISSVEAEDAATYYCQQWSSYPFTFGSGTKLEIK
modifications: Used biotinylated on the SPOTs membranes; the site is not given.
notes: also called monoclonal antibody of the present invention
**Q.** Does B1 bind [1]?
**A.** Result: no binding

**Q.** Does B1 bind [2]?
**A.** Result: binds

**Q.** Does B1 bind [3]?
**A.** Result: binds

**Q.** Does B1 bind [4]?
**A.** Result: binds

**Q.** Does B1 bind [5]?
**A.** Result: binds

**Q.** Does B1 bind [6]?
**A.** Result: binds

**Q.** Does B1 bind [7]?
**A.** Result: binds

**Q.** Does B1 bind [8]?
**A.** Result: binds

**Q.** Does B1 bind [9]?
**A.** Result: binds

**Q.** Does B1 bind [10]?
**A.** Result: binds

**Q.** Does B1 bind [11]?
**A.** Result: binds

**Q.** Does B1 bind [12]?
**A.** Result: binds

**Q.** Does B1 bind [13]?
**A.** Result: binds

**Q.** Does B1 bind [14]?
**A.** Result: binds

**Q.** Does B1 bind [15]?
**A.** Result: binds

**Q.** Does B1 bind [16]?
**A.** Result: no binding (tested: 5 µg/mL)

**Q.** Does B1 bind [17]?
**A.** Result: no binding

**Q.** What about the “fold lower concentration for binding than LN3” value [18] of the same binder?
**A.** The value was ~10 times.

**Q.** Does B1 bind [19]?
**A.** Result: binds
